Molecular target: the molecule itself
Test: SDS-PAGE (Coomassie blue) and Western blot of the purified protein; purified GS-168AT2; 36 kDa band seen by Coomassie blue and recognised by 229T mAb

B1: GS-168AT2, truncated form of CD9 partner-1 (CD9P-1), amino acid 724-832 (domain or fragment, human, UniProt Q9P2B2 724-832, looked up)
chain: DMAFDVSWFAVHSFGLDKAPVLLSSLDRKGIVTTSRRDWKSDLSLERVSVLEFLLQVHGSEDQDFGNYYCSVTPWVKSPTGSWQKEAEIHSKPVFITVKMDVLNAFKYP
notes: CD9 partner-1 (CD9P-1/FPRP/EWI-F), human, amino acid 724-832: the unglycosylated extracellular portion next to the transmembrane domain; cDNA from RNA of human endothelial cells; no removal of the tag is described. pET-30 EK/LIC is known to add His and S tags at the N-terminus (surmised); also called truncated CD9P-1; source: E. coli BL21(DE3)pLys, purified from the insoluble fraction in urea …
  binding result: binds
